# Reference: patent US20250177521A1
# Biological target: Fc gamma receptor (FcγR)
# Experiment: cell-based or functional assay
"mean fold difference in CD107a on CD3-CD56+ NK cells against samples without mAbs, RA [fold]","mean fold difference in CD107a on CD3-CD56+ NK cells against samples without mAbs, SLE [fold]",Substance
3.1,1.8,Obinutuzumab (antibody)
1.2,1.5,rituximab (antibody)
1.9,1.4,"non-glycoengineered, wild type glycosylated OBZ (antibody)"
